Data set [1] deals with T1, ZafA (Aspergillus fumigatus (FGSC A1163 akuB(KU80)-delta pyrG1 is the study strain; cDNA source 'fungal cDNA')) (UniProt A3QX02).
T1 sequence: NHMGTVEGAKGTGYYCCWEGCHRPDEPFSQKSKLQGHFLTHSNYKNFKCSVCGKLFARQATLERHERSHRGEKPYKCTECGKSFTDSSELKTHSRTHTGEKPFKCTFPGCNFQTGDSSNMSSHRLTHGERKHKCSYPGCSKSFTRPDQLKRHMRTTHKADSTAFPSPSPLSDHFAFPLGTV
Kind of data set: EMSA. The following applies: 10 mM Tris-HCl pH 8.0, 50 mM NaCl, 1 mM MgCl2, 500 uM EDTA, 500 uM DTT, 4% glycerol; 500 ng ZafA, 5 ng probe; 30 min at 25 C; Zn/Cu added 10 min after start of …. For orientation: Mobility shift assays separate free from complexed probe on a gel.

Data set [2] concerns the target T1, ZafA (Aspergillus fumigatus (FGSC A1163 akuB(KU80)-delta pyrG1 is the study strain; cDNA source 'fungal cDNA')). As to the kind of experiment: competition. The following applies: 10 mM Tris-HCl pH 8.0, 50 mM NaCl, 1 mM MgCl2, 500 uM EDTA, 500 uM DTT, 4% glycerol; 500 ng ZafA, 5 ng probe; 30 min at 25 C; Zn/Cu added 10 min after start of ….

Take “CTCAAAGCTCGCTCATCGGATTTTTGATTATCAGTTTTGCGAGACCAAGCATGATAGTGACAGAGCATTCAAGGTGAGAATGTGAAGAATGCGTGGCGGCGTAGCATTCTTACT (double strand) [CtrA2 promoter EMSA probe, 114 bp]”: the binding entry in data set [1] is “no binding”. In the case of “AGCAGACCAGAGCAATAGAAGAAAGGGTCAAAAAAAGAGGAAAGACAGCGGTTATCTACATAGAGATAGCAAGCAGTGGCTGGGACGGAGAAAGTGAAGTCGTACAACAAGACAGGCCCTGGGCCCTT (double strand)”, the binding result in data set [2] is “no binding”. “TACCAGGGCCCCTTTCCCTCAAGTTGCTCGCACAGATCTGGATGTTACTTTCATCGAATATATACACGTGGGAAGCTCCCAAGGTCCTCTTGGAT (double strand) [ZafA promoter EMSA probe, 95 bp]”: in data set [1], the binding result was “binds”. Same read-out and setting: then “AAGGGCCCAGGGCCTGTCTTGTTGTACGACTTCACTTTCTCCCAGGGTGCCACTGCTTGCTATCTCTATGTAGATAACCGCTGTCTTTCCTCTTTTTTTGACCCTTTCTTCTATTGCTCTGGTCTGCT (double strand) [CtrC promoter EMSA probe, 128 bp]”, with “binds”.

As for “AAGGGCCCAGGGCCTGTCTTGTTGTACGACTTCACTTTCTCCCAGGGTGCCACTGCTTGCTATCTCTATGTAGATAACCGCTGTCTTTCCTCTTTTTTTGACCCTTTCTTCTATTGCTCTGGTCTGCT (double strand) [CtrC promoter fragment, unlabeled]”, the binding result in data set [2] is recorded as “binds”.

Consider “TGCCGCCATTGTTCAGCAGTGCGGTGCTGTCAAGGTCAAGGTCAAGGACGGCCTTCTCCAAGGATGTCACATACAAAGGGAATAGACTGAATAAATCATTTCCTCGGCAACGATCCGA (double strand) [CtrA1 promoter EMSA probe, 118 bp]”, for which the binding result in data set [1] was “no binding”.
